Results published in paper doi:10.1101/2020.07.27.222380, “NBS1-CtIP–Mediated DNA End Resection Regulates cGAS Binding to Micronuclei”.

Target: cGAS (human, UniProt Q8N884 1-522)
Test: EMSA; 5-10 uM cGAS, 50 fmol DNA, 1 mM Mg2+; 10 mM Hepes-NaOH pH 7.5, 100 mM NaCl, 1 mM DTT, 1 mM MgCl2, 20 ug/mL BSA, 25-50 fmol DNA, 25 C 30 min; native PAGE 5% or 6% (Methods), 0.5x TBE
Conditions: protein: recombinant; tags: His (pET28a-His-hcGAS); label: 32P

Sequence of cGAS (Q8N884 whole entry): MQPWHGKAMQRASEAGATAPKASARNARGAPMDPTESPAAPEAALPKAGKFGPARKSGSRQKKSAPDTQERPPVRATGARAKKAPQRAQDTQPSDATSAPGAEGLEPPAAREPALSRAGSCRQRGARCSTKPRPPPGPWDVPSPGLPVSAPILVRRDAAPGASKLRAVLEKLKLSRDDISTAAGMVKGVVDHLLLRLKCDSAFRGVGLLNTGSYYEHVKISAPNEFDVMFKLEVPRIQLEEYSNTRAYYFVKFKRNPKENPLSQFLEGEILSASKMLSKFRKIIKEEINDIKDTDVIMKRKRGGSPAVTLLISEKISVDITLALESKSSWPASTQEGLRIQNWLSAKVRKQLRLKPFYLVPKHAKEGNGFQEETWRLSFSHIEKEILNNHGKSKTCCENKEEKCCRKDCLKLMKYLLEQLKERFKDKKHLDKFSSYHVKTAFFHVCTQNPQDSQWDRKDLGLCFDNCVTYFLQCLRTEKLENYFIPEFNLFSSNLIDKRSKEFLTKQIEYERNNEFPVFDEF

B1: ISRE 45-bp dsDNA (dsDNA)
DNA 1: TACAGATCTACTAGTGATCTATGACTGATCTGTACATGATCTACACCAAAGAGCATTGTAGATCATGTACAGATCAGTCATAGATCACTAGTAGATCTGTA
DNA 2: TACAGATCTACTAGTGATCTATGACTGATCTGTACATGATCTACAATGCTCTTTGGTGTAGATCATGTACAGATCAGTCATAGATCACTAGTAGATCTGTA
binding result: binds
